Measured values from article PMC2148441.

Target: human phosphopantetheinyl transferase (human) (UniProt Q9NRN7)

Km for ACP in the PPT reaction after replacement of the hydrophobic patch by alanines (data not shown): > 1000 fold
Substance: ACP domain of human fatty acid synthase with the hydrophobic patch Leu2157, Met2158, Val2160 replaced by alanine (from UniProt P49327 2117-2205) (domain or fragment)
